The supplement of paper PMC7877785
± gives the uncertainty stated by the source.

Experiment: self-splicing fitness, log relative to wild type (ln ratio); higher = more splicing; Tetrahymena group I intron in knt gene, E. coli kanamycin selection, DiMSum; sequences stand for … in CUCUCU…GGAGGGAAAAGUUAUCAGGCAUGCACCUGGUAGCUAGUCUUUAAACCAAUAGAUUGCAUCGGUUUAAAAGGCAAGACCGUCAAAUUGCGGGAAAGGGGUCAACAGCCGUUCAGUACCAAGUCUCAGGGGAAACUUUGAGAUGGCCUUGCAAAGGGUAUGGUAAUAAGCUGACGGACAUGGUCCUAACCACGCAGCCAAGUCCUAAGUCAACAGAUCUUCUGUUGAUAUGGAUGCAGUUCACAGACUAAAUGUCGGUCGGGGAAGAUGUAUUCUUCUCAUAAGAUAUAGUCGGACCUCUCCUUAAUGGGAGCUAGCGGAUGAAGUGAUGCAACACUGGAGCCGCUGGGAACUAAUUUGUAUGCGAAAGUAUAUUGAUUAGUUUUGGAGUACUCGUGGUCG
Method in brief: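 Six replicate transformations of E. coli BL21(DE3) with a pET-22b(+) library were grown overnight at 37°C or 30°C. The library randomised all eight P1ex-region intron nucleotides, the intron lying in the knt kanamycin-resistance gene, and plates were LB agar with or without 25 μg/mL kanamycin plus 100 μg/mL carbenicillin, 50 μM IPTG and 0.2% rhamnose. Pooled colonies were amplicon-sequenced on an Illumina HiSeq 2500, and fitness is the DiMSum error-weighted combination of wild-type-normalised replicate fold changes, kanamycin versus none.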

Sequence | self-splicing fitness (ln) (30 °C) | self-splicing fitness (ln) (37 °C)
GAAUAGCAAUAUUACGAUAC | -1.47 ± 0.15 | -0.123 ± 0.17
GAAUAGCAAUAUUACGAUGA | -1.2 ± 0.083 | -0.62 ± 0.093
GAAUAGCAAUAUUACGAUUG | -1.4 ± 0.1 | -0.331 ± 0.13
GAAUAGCAAUAUUACGCAGA | -2.53 ± 0.16 | -1.34 ± 0.14
GAAUAGCAAUAUUACGCCAU | – | -1.49 ± 0.36
GAAUAGCAAUAUUACGCGCU | -0.615 ± 0.13 | -0.0137 ± 0.15
GAAUAGCAAUAUUACGGAGA | -3.11 ± 0.47 | -2.56 ± 0.45
GAAUAGCAAUAUUACGGAGU | -2.02 ± 0.18 | -2.03 ± 0.23
GAAUAGCAAUAUUACGGCUU | 0.268 ± 0.075 | 0.303 ± 0.11
GAAUAGCAAUAUUACGGGAU | -2.06 ± 0.13 | -2.06 ± 0.16
GAAUAGCAAUAUUACGGUCC | -2.78 ± 0.24 | -0.862 ± 0.25
GAAUAGCAAUAUUACGGUGG | -3.06 ± 0.24 | -1.08 ± 0.12
GAAUAGCAAUAUUACGUAGU | -2.61 ± 0.12 | -1.99 ± 0.18
GAAUAGCAAUAUUACGUCCC | -1.33 ± 0.12 | -0.165 ± 0.17
GAAUAGCAAUAUUACGUCGU | -2 ± 0.12 | -1.35 ± 0.14
GACAAGCAAUAUUACGACUC | 0.206 ± 0.1 | 0.387 ± 0.12
GACAAGCAAUAUUACGAGAG | -3.18 ± 0.17 | -2.96 ± 0.21
GACAAGCAAUAUUACGAGCU | -1.28 ± 0.08 | -0.288 ± 0.11
GACAAGCAAUAUUACGAUGC | -1.44 ± 0.091 | -0.732 ± 0.11
GACAAGCAAUAUUACGCAGU | -3.47 ± 0.35 | -1.85 ± 0.22
GACAAGCAAUAUUACGCAUC | -4.33 ± 0.28 | -3.91 ± 0.42
GACAAGCAAUAUUACGCGAA | -2.8 ± 0.16 | -1.88 ± 0.14
GACAAGCAAUAUUACGCGGU | -3.2 ± 0.24 | -2.48 ± 0.24
GACAAGCAAUAUUACGCGUC | -4.02 ± 0.22 | -3.45 ± 0.39

Sequence | self-splicing fitness (ln) (30 °C) | self-splicing fitness (ln) (37 °C)
GACAAGCAAUAUUACGCUCC | -3.8 ± 0.24 | -2.56 ± 0.27
GACAAGCAAUAUUACGGAAU | -1.92 ± 0.11 | -1.35 ± 0.12
GACAAGCAAUAUUACGGCCC | -0.324 ± 0.16 | 0.203 ± 0.28
GACAAGCAAUAUUACGGCUU | -0.995 ± 0.068 | -0.505 ± 0.1
GACAAGCAAUAUUACGGGCU | -1.63 ± 0.087 | -1.39 ± 0.097
GACAAGCAAUAUUACGGGGA | -3.05 ± 0.12 | -1.75 ± 0.1
GACAAGCAAUAUUACGUACU | -1.16 ± 0.059 | -0.397 ± 0.079
GACAAGCAAUAUUACGUCGC | -3.86 ± 0.25 | -2.1 ± 0.21
GACAAGCAAUAUUACGUCUA | -2.01 ± 0.079 | -1.04 ± 0.082
GACAAGCAAUAUUACGUGCA | -0.912 ± 0.06 | 0.0273 ± 0.077
GACAAGCAAUAUUACGUGCU | -2.93 ± 0.082 | -1.82 ± 0.078
GACAAGCAAUAUUACGUUAC | -3.32 ± 0.15 | -2.36 ± 0.17
GACAAGCAAUAUUACGUUCC | -3.15 ± 0.24 | -2.8 ± 0.31
GACCAGCAAUAUUACGAAGC | -0.849 ± 0.062 | -0.511 ± 0.093
GACCAGCAAUAUUACGACAC | -0.384 ± 0.065 | -0.0663 ± 0.085
GACCAGCAAUAUUACGACAG | -3.85 ± 0.18 | -2.22 ± 0.18
GACCAGCAAUAUUACGACGG | -2.67 ± 0.15 | -1.99 ± 0.18
GACCAGCAAUAUUACGACUA | -0.158 ± 0.056 | -0.0882 ± 0.062
GACCAGCAAUAUUACGAGUC | -3.82 ± 0.23 | -2.06 ± 0.18
GACCAGCAAUAUUACGAGUG | -0.669 ± 0.055 | -0.33 ± 0.084
GACCAGCAAUAUUACGAUAC | -0.984 ± 0.056 | -0.634 ± 0.066
GACCAGCAAUAUUACGCAUG | -1.2 ± 0.073 | -1.65 ± 0.09
GACCAGCAAUAUUACGCUAG | -1.29 ± 0.087 | -0.88 ± 0.1
GACCAGCAAUAUUACGGCAC | -0.0527 ± 0.076 | 0.491 ± 0.11

Sequence | self-splicing fitness (ln) (30 °C) | self-splicing fitness (ln) (37 °C)
GACCAGCAAUAUUACGGCAG | -3.74 ± 0.3 | -3.28 ± 0.25
GACCAGCAAUAUUACGGCCA | -0.323 ± 0.077 | 0.208 ± 0.13
GACCAGCAAUAUUACGGCGG | -2.55 ± 0.2 | -2.79 ± 0.27
GACCAGCAAUAUUACGGGGU | -3.79 ± 0.19 | -1.82 ± 0.14
GACCAGCAAUAUUACGGUCG | -1.98 ± 0.077 | -1.47 ± 0.11
GACCAGCAAUAUUACGGUCU | -3.61 ± 0.17 | -3.16 ± 0.21
GACCAGCAAUAUUACGUAAC | -0.981 ± 0.065 | -0.475 ± 0.079
GACCAGCAAUAUUACGUAAG | -1.55 ± 0.052 | -0.817 ± 0.076
GACCAGCAAUAUUACGUACA | -0.568 ± 0.067 | 0.0774 ± 0.083
GACCAGCAAUAUUACGUAUC | -0.803 ± 0.1 | -0.659 ± 0.11
GACCAGCAAUAUUACGUCCG | -4.09 ± 0.27 | -2.12 ± 0.17
GACCAGCAAUAUUACGUCUA | -1.44 ± 0.085 | -0.724 ± 0.081
GACCAGCAAUAUUACGUUCA | -0.884 ± 0.1 | -0.163 ± 0.097
GACCAGCAAUAUUACGUUGC | -1.78 ± 0.067 | -1.56 ± 0.1
GACGAGCAAUAUUACGACGC | -0.758 ± 0.13 | -0.747 ± 0.15
GACGAGCAAUAUUACGAGUC | -3.37 ± 0.2 | -2.85 ± 0.31
GACGAGCAAUAUUACGAGUG | -4.04 ± 0.31 | -2.63 ± 0.19
GACGAGCAAUAUUACGAUAU | -3.83 ± 0.33 | -2.15 ± 0.32
GACGAGCAAUAUUACGAUUA | -2.73 ± 0.23 | -1.55 ± 0.22
GACGAGCAAUAUUACGCACA | -2.32 ± 0.15 | -0.917 ± 0.14
GACGAGCAAUAUUACGCACU | -1.32 ± 0.15 | -0.506 ± 0.16
GACGAGCAAUAUUACGCCUG | – | -1.56 ± 0.47
GACGAGCAAUAUUACGCUUU | -3.17 ± 0.46 | -0.0656 ± 0.19
GACGAGCAAUAUUACGGAAA | -2.69 ± 0.3 | -1.47 ± 0.29

Sequence | self-splicing fitness (ln) (30 °C) | self-splicing fitness (ln) (37 °C)
GACGAGCAAUAUUACGGCCC | -0.0683 ± 0.45 | -0.45 ± 0.4
GACGAGCAAUAUUACGGGGC | -2.83 ± 0.13 | -2.25 ± 0.16
GACGAGCAAUAUUACGGUCU | -2.33 ± 0.15 | -2.8 ± 0.27
GACGAGCAAUAUUACGGUGG | -3.01 ± 0.16 | -2.77 ± 0.19
GACGAGCAAUAUUACGGUGU | -4.63 ± 0.45 | -2.64 ± 0.22
GACGAGCAAUAUUACGUGUG | -2.9 ± 0.087 | -1.01 ± 0.077
GACGAGCAAUAUUACGUUAU | -4.17 ± 0.39 | -2.36 ± 0.31
GACGAGCAAUAUUACGUUUC | -2.64 ± 0.24 | -3.33 ± 0.33
GACGAGCAAUAUUACGUUUU | -4.36 ± 0.28 | -1.61 ± 0.13
GACUAGCAAUAUUACGAAGA | -1.87 ± 0.13 | -0.416 ± 0.13
GACUAGCAAUAUUACGACCG | -0.436 ± 0.3 | -0.537 ± 0.34
GACUAGCAAUAUUACGACGA | -0.416 ± 0.074 | 0.00653 ± 0.078
GACUAGCAAUAUUACGAGGU | -2.34 ± 0.2 | -1.64 ± 0.2
GACUAGCAAUAUUACGAGUU | -4.75 ± 0.32 | -2.74 ± 0.3
GACUAGCAAUAUUACGAUAU | -0.566 ± 0.075 | -0.0805 ± 0.1
GACUAGCAAUAUUACGCAAU | -1.34 ± 0.19 | -1.38 ± 0.17
GACUAGCAAUAUUACGCCCG | -1.77 ± 0.24 | -0.58 ± 0.28
GACUAGCAAUAUUACGCGUA | -0.78 ± 0.11 | -0.344 ± 0.097
GACUAGCAAUAUUACGGCAC | -0.648 ± 0.14 | 0.581 ± 0.16
GACUAGCAAUAUUACGGCCC | – | 0.226 ± 0.4
GACUAGCAAUAUUACGGGCA | -0.911 ± 0.072 | 0.2 ± 0.085
GACUAGCAAUAUUACGUCGA | -1.96 ± 0.11 | -0.484 ± 0.1
GACUAGCAAUAUUACGUCUU | -0.971 ± 0.099 | -1.39 ± 0.15
GACUAGCAAUAUUACGUGUC | -2.59 ± 0.42 | –
